We go through one molecule from PMC2873192 (Journal of the American Chemical Society, 2009).

The assay concerns the target T1, integrin-linked kinase (ILK) ankyrin repeat domain (ARD) (UniProt Q13418 1-171).
T1 sequence: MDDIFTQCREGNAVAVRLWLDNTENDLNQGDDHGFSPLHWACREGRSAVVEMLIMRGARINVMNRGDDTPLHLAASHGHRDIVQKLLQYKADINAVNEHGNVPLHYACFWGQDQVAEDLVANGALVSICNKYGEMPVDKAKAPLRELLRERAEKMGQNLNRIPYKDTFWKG
Put plainly: ITC. In general terms: Isothermal titration calorimetry measures the heat released or taken up as one component is titrated into another.

B1: PINCH LIM1 domain (domain or fragment)
chain: MANALASATCERCKGGFAPAEKIVNSNGELYHEQCFVCAQCFQQFPEGLFYEFEGRKYCEHDFQMLFAPC
In turn, B1 came in with a Kd of approximately 68 nM.

As a reminder, the Kd is the free concentration of one partner at which half of the binding sites on the other are occupied at equilibrium, for simple one-to-one binding. The low end stands for tighter binding, the high end for weaker binding.
